Results from publication PMC2881539 (Analytical biochemistry, 2010).

Assays:
Test in all cases: ELISA
Fzd5 CRD = Fzd5 CRD (UniProt Q13467); conditions: cited from earlier work
[1] = target: T1, purified hSFRP4 (R & D Systems) (human, UniProt Q6FHJ7 19-346)
T1 sequence (looked up): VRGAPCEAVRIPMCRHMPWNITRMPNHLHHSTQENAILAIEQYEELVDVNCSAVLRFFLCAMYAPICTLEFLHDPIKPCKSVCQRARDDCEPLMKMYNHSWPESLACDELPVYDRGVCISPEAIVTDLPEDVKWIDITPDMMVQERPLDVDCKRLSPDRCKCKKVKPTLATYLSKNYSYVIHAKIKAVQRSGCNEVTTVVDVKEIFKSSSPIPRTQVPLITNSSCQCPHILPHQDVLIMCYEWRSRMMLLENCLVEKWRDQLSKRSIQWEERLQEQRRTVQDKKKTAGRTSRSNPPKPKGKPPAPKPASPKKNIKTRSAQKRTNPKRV

mWnt3a-V5/6xHis = mWnt3a-V5/6xHis (mouse, UniProt P27467 19-352)
Chain of mWnt3a-V5/6xHis (P27467 19-352): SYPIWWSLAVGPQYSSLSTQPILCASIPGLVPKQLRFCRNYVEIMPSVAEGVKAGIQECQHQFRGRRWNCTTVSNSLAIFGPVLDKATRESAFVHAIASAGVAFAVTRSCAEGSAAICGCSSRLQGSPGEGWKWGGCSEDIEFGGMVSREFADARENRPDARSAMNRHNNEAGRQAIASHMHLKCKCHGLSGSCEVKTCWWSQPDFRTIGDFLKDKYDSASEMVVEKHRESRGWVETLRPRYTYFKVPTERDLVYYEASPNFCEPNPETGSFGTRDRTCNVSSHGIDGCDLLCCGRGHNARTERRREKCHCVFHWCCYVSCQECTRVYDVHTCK

Wnt7a (from UniProt O00755)
Kd (Fzd5 CRD): 75.4 nM

B1: rWnt7a V5/6xHis (ligand, UniProt O00755 32-349, looked up)
chain: LGASIICNKIPGLAPRQRAICQSRPDAIIVIGEGSQMGLDECQFQFRNGRWNCSALGERTVFGKELKVGSREAAFTYAIIAAGVAHAITAACTQGNLSDCGCDKEKQGQYHRDEGWKWGGCSADIRYGIGFAKVFVDAREIKQNARTLMNLHNNEAGRKILEENMKLECKCHGVSGSCTTKTCWTTLPQFRELGYVLKDKYNEAVHVEPVRASRNKRPTFLKIKKPLSYRKPMDTDLVYIEKSPNYCEEDPVTGSVGTQGRACNKTAPQASGCDLMCCGRGYNTHQYARVWQCNCKFHWCCYVKCNTCSERTEMYTCK
Kd [1]: 86.5 nM

B2: hFzd5CRD-Fc IgG (Fc fusion, human, UniProt Q13467 27-150, looked up)
chain: ASKAPVCQEITVPMCRGIGYNLTHMPNQFNHDTQDEAGLEVHQFWPLVEIQCSPDLRFFLCSMYTPICLPDYHKPLPPCRSVCERAKAGCSPLMRQYGFAWPERMSCDRLPVLGRDAEVLCMDY
Kd (mWnt3a-V5/6xHis): 83.7 nM
